These results are taken from paper doi:10.1101/2025.10.24.684422.

Assay [1] has as its target HAESA-LIKE 3 (HSL3) ectodomain, wild type (Arabidopsis thaliana). In words: ITC. (ITC needs no label: the signal is the heat of the interaction.)
Assay [2] concerns the target HSL3 ectodomain Gln120Ala (Arabidopsis thaliana). Put plainly: ITC.

The substance CTNIP4(48-70)_(Cys-Cys) (peptide) showed a fold loss of affinity against CTNIP4(46-70) (Cys-Cys) in assay [1] of 200 fold. As to CTNIP4(47-70)_(Cys-Cys) (peptide), in assay [1], the fold reduction in binding against CTNIP4(46-70) (Cys-Cys) amounted to 4 fold. In assay [1], CTNIP4^I61Y (peptide) registered a fold reduction in binding affinity against CTNIP4(46-70) (Cys-Cys) of 120 fold.

CTNIP4^C58A(46-63) (peptide): the fold reduction in binding affinity against CTNIP4(46-70) (Cys-Cys) in assay [1] is 200 fold.

Consider CTNIP4^C58A.C68A(46-70) (peptide), for which the fold impairment of binding against CTNIP4(46-70) (Cys-Cys) in assay [1] was found to be 200 fold.

Regarding CTNIP4(46-70)_(Cys-Cys) (peptide), the fold reduction in binding affinity against wild-type HSL3 in assay [2] was 60 fold.
